Experiments:
[1] = biological target: Litopenaeus vannamei Proliferating Cell Nuclear Antigen (Litopenaeus vannamei); test: crystal structure; X-ray, 3 Å, space group C2; crystals from 300 mM CaCl2, 100 mM sodium HEPES pH 7.5, 30% v/v PEG 400; molecular replacement
[2] = biological target: Litopenaeus vannamei Proliferating Cell Nuclear Antigen (Litopenaeus vannamei); test: SEC; purified LvPCNA at 1 mg/ml on a Superdex 200 column, elution compared with known molecular-mass standards

stoichiometry N [1]: 3
stoichiometry N [2]: 3
Substance: Litopenaeus vannamei Proliferating Cell Nuclear Antigen (natural protein)
